Target: the molecule itself
Experiment: cryo-EM imaging with calculated diffraction patterns (layer lines); tubulin or microtubules with LRRK2^RCKW (WT or mutant), with or without MLi-2; layer lines in diffraction patterns calculated from images of single filaments, 2D class averages

| Protein | binding result |
| --- | --- |
| LRRK2^RCKW-S2345D (domain or fragment, human, LRRK2, human, carboxy-terminal catalytic half with the ROC, COR, kinase and WD40 domains; also called p.S2345D; WD40 dimerization interface mutant; source: Sf9 insect cells, baculovirus, purified (Ni-NTA, SP Sepharose, TEV cleavage, second Ni-NTA, S200 gel filtration); not shown: His6-Z, N-terminal, cleaved) KKAVPYNRMKLMIVGNTGSGKTTLLQQLMKTKKSDLGMQSATVGIDVKDWPIQIRDKRKRDLVLNVWDFAGREEFYSTHPHFMTQRALYLAVYDLSKGQAEVDAMKPWLFNIKARASSSPVILVGTHLDVSDEKQRKACMSKITKELLNKRGFPAIRDYHFVNATEESDALAKLRKTIINESLNFKIRDQLVVGQLIPDCYVELEKIILSERKNVPIEFPVIDRKRLLQLVRENQLQLDENELPHAVHFLNESGVLLHFQDPALQLSDLYFVEPKWLCKIMAQILTVKVEGCPKHPKGIISRRDVEKFLSKKRKFPKNYMSQYFKLLEKFQIALPIGEEYLLVPSSLSDHRPVIELPHCENSEIIIRLYEMPYFPMGFWSRLINRLLEISPYMLSGRERALRPNRMYWRQGIYLNWSPEAYCLVGSEVLDNHPESFLKITVPSCRKGCILLGQVVDHIDSLMEEWFPGLLEIDICGEGETLLKKWALYSFNDGEEHQKILLDDLMKKAEEGDLLVNPDQPRLTIPISQIAPDLILADLPRNIMLNNDELEFEQAPEFLLGDGSFGSVYRAAYEGEEVAVKIFNKHTSLRLLRQELVVLCHLHHPSLISLLAAGIRPRMLVMELASKGSLDRLLQQDKASLTRTLQHRIALHVADGLRYLHSAMIIYRDLKPHNVLLFTLYPNAAIIAKIADYGIAQYCCRMGIKTSEGTPGFRAPEVARGNVIYNQQADVYSFGLLLYDILTTGGRIVEGLKFPNEFDELEIQGKLPDPVKEYGCAPWPMVEKLIKQCLKENPQERPTSAQVFDILNSAELVCLTRRILLPKNVIVECMVATHHNSRNASIWLGCGHTDRGQLSFLDLNTEGYTSEEVADSRILCLALVHLPVEKESWIVSGTQSGTLLVINTEDGKKRHTLEKMTDSVTCLYCNSFSKQSKQKNFLLVGTADGKLAIFEDKTVKLKGAAPLKILNIGNVSTPLMCLSESTNSTERNVMWGGCGTKIFSFSNDFTIQKLIETRTSQLFDYAAFSDSNIITVVVDTALYIAKQNSPVVEVWDKKTEKLCGLIDCVHFLREVMVKENKESKHKMSYSGRVKTLCLQKNTALWIGTGGGHILLLDLSTRRLIRVIYNFCNSVRVMMTAQLGSLKNVMLVLGYNRKNTEGTQKQKEIQSCLTVWDINLPHEVQNLEKHIEVRKELAEKMRRTSVE | binds |
| LRRK2^RCKW-G2019S (domain or fragment, human, LRRK2, human, carboxy-terminal catalytic half with the ROC, COR, kinase and WD40 domains, with the PD-linked mutation p.G2019S; also called LRRK2^RCKW carrying p.G2019S; source: Sf9 insect cells, baculovirus, purified (Ni-NTA, SP Sepharose, TEV cleavage, second Ni-NTA, S200 gel filtration); not shown: His6-Z, N-terminal, cleaved) KKAVPYNRMKLMIVGNTGSGKTTLLQQLMKTKKSDLGMQSATVGIDVKDWPIQIRDKRKRDLVLNVWDFAGREEFYSTHPHFMTQRALYLAVYDLSKGQAEVDAMKPWLFNIKARASSSPVILVGTHLDVSDEKQRKACMSKITKELLNKRGFPAIRDYHFVNATEESDALAKLRKTIINESLNFKIRDQLVVGQLIPDCYVELEKIILSERKNVPIEFPVIDRKRLLQLVRENQLQLDENELPHAVHFLNESGVLLHFQDPALQLSDLYFVEPKWLCKIMAQILTVKVEGCPKHPKGIISRRDVEKFLSKKRKFPKNYMSQYFKLLEKFQIALPIGEEYLLVPSSLSDHRPVIELPHCENSEIIIRLYEMPYFPMGFWSRLINRLLEISPYMLSGRERALRPNRMYWRQGIYLNWSPEAYCLVGSEVLDNHPESFLKITVPSCRKGCILLGQVVDHIDSLMEEWFPGLLEIDICGEGETLLKKWALYSFNDGEEHQKILLDDLMKKAEEGDLLVNPDQPRLTIPISQIAPDLILADLPRNIMLNNDELEFEQAPEFLLGDGSFGSVYRAAYEGEEVAVKIFNKHTSLRLLRQELVVLCHLHHPSLISLLAAGIRPRMLVMELASKGSLDRLLQQDKASLTRTLQHRIALHVADGLRYLHSAMIIYRDLKPHNVLLFTLYPNAAIIAKIADYSIAQYCCRMGIKTSEGTPGFRAPEVARGNVIYNQQADVYSFGLLLYDILTTGGRIVEGLKFPNEFDELEIQGKLPDPVKEYGCAPWPMVEKLIKQCLKENPQERPTSAQVFDILNSAELVCLTRRILLPKNVIVECMVATHHNSRNASIWLGCGHTDRGQLSFLDLNTEGYTSEEVADSRILCLALVHLPVEKESWIVSGTQSGTLLVINTEDGKKRHTLEKMTDSVTCLYCNSFSKQSKQKNFLLVGTADGKLAIFEDKTVKLKGAAPLKILNIGNVSTPLMCLSESTNSTERNVMWGGCGTKIFSFSNDFTIQKLIETRTSQLFSYAAFSDSNIITVVVDTALYIAKQNSPVVEVWDKKTEKLCGLIDCVHFLREVMVKENKESKHKMSYSGRVKTLCLQKNTALWIGTGGGHILLLDLSTRRLIRVIYNFCNSVRVMMTAQLGSLKNVMLVLGYNRKNTEGTQKQKEIQSCLTVWDINLPHEVQNLEKHIEVRKELAEKMRRTSVE | binds |
